Laboratory results published in PMC11686370.
Several values for one entry are separate records, joined by “and”; a condition that tells them apart may be missing. Equal entries are not always repeated. Where two headings read alike, the source gives them in different places.

Legend:
Assay in all cases: SPR
[1] = biological target: his-tagged knob domain protein of HAdV-B7 fiber (Human adenovirus B7)
[2] = biological target: ALCAM protein, commercially available (Sino, Cat. No. 10045-H08H-100) (human) (UniProt Q13740)
[3] = biological target: his-tagged knob domain protein of HAdV-B7 fiber (Human adenovirus B7); remark: listed apart in the source

Molecule	Kd [1]	Kd [2]	Kd [3]
DSG-2 protein (MCE, Cat. No. HY-P77917) (from UniProt Q14126 50-609) (receptor)	2610 nM		
his-tagged knob domain protein of HAdV-B7 fiber (domain or fragment)	3470 nM	700 nM and 849 nM	
ALCAM protein, commercially available (Sino, Cat. No. 10045-H08H-100) (receptor) WYTVNSAYGDTIIIPCRLDVPQNLMFGKWKYEKPDGSPVFIAFRSSTKKSVQYDDVPEYKDRLNLSENYTLSISNARISDEKRFVCMLVTEDNVFEAPTIVKVFKQPSKPEIVSKALFLETEQLKKLGDCISEDSYPDGNITWYRNGKVLHPLEGAVVIIFKKEMDPVTQLYTMTSTLEYKTTKADIQMPFTCSVTYYGPSGQKTIHSEQAVFDIYYPTEQVTIQVLPPKNAIKEGDNITLKCLGNGNPPPEEFLFYLPGQPEGIRSSNTYTLTDVRRNATGDYKCSLIDKKSMIASTAITVHYLDLSLNPSGEVTRQIGDALPVSCTISASRNATVVWMKDNIRLRSSPSFSSLHYQDAGNYVCETALQEVEGLKKRESLTLIVEGKPQIKMTKKTDPSGLSKTIICHVEGFPKPAIQWTITGSGSVINQTEESPYINGRYYSKIIISPEENVTLTCTAENQLERTVNSLNVSAISIPEHDEADEISDENREKVNDQAK			961 nM
